# Source: CN117126289A (SUNSHINE GUOJIAN PHARMACEUTICAL SHANGHAI CO LTD, dated 2023)
# T1: 重组Human-CD3-FC蛋白 (human)
# T1 chain: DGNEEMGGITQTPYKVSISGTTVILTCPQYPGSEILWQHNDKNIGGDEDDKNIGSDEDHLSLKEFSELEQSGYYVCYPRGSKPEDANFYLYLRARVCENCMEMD
# T2: 重组Human-TROP-2-HIS蛋白 (human, UniProt P09758 27-274, limits assumed)
# T2 construct: Bought protein; also called TROP-2-HIS蛋白 (恺佧, TRP-HM121); not shown: His tag
# T2 sequence (looked up): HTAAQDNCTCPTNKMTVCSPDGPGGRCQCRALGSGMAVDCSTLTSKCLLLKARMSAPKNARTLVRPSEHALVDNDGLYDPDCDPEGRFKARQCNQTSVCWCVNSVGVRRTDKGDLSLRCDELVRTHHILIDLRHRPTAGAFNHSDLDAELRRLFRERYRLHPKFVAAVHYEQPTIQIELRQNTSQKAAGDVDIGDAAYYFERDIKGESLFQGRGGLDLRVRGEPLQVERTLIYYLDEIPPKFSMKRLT
# B1: 人源化SP34 (抗CD3单抗阳性对照) (antibody, human IgG1, kappa, V domains shown)
# VH: EVQLVESGGGLVQPGGSLRLSCAASGFTFNTYAMNWVRQAPGKGLEWVARIRSKYNNYATYYADSVKDRFTISRDDSKNTLYLQMNSLRAEDTAVYYCVRHGNFGNSYVSWFAYWGQGTLVTVSS
# VL: QAVVTQEPSLTVSPGGTVTLTCRSSTGAVTTSNYANWVQQKPGQAPRGLIGGTNKRAPGVPARFSGSLLGGKAALTLSGAQPEDEAEYYCALWYSNLWVFGQGTKVEIKR
# notes: Full-length humanised SP34: VH + human IgG1 constant region, VL + human Kappa constant region; also called 阳性对照CD3单抗; 人源化SP34单克隆抗体
# B2: KM4097HV3aLV0人源化单克隆抗体 (抗TROP-2单抗阳性对照) (antibody, V domains shown)
# VH: QVQLVQSGPEVKKPGASVKVSCKASGYTFTIYWLGWVRQAPGQGLEWMGNIFPGSAYINYNEKFKGKVTITADTSTSTAYMELSSLRSEDTAVYFCAREGSNSGYWGQGTLVTVSS
# VL: DIVMTQSPDSLAVSLGERATINCKSSQSLLNSGNQQNYLAWYQQKPGQPPKLLIYGASTRESGVPDRFSGSGSGTDFTLTISSLQAEDVAVYYCQSDHIYPYTFGQGTKLEIKR
# notes: IgG (detected with anti-human Fc); also called 阳性对照抗TROP-2单抗
# Experiments:
# 重组Human-CD3-FC蛋白 = target: T1, 重组Human-CD3-FC蛋白; experiment: ELISA, coated CD3-FC 200 ng/ml, HRP goat anti-human Fab
# 重组Human-TROP-2-HIS蛋白 = target: T2, 重组Human-TROP-2-HIS蛋白; experiment: ELISA, coated TROP-2-HIS 200 ng/ml, HRP goat anti-human Fc
Binder,EC50 (重组Human-CD3-FC蛋白) [nM],EC50 (重组Human-TROP-2-HIS蛋白) [nM]
B1,0.0618,
B2,,0.0261
